Laboratory results published in patent publication US20220276241A1 (TRUSTEES OF INDIANA UNIVERSITY, published 2022).

Target: T1, PhnD E177NΔ (E. coli, UniProt P16682 27-329, acrylodan on Cys 126)
T1 chain: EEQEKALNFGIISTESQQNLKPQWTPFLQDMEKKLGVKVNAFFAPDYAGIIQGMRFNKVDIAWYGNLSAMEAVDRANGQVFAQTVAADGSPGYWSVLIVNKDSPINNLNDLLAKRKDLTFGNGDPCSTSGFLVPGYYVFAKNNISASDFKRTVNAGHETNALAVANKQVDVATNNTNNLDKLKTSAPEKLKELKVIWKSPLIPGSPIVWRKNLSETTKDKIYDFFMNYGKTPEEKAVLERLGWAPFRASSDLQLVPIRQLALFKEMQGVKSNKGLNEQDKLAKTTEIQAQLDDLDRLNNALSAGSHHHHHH
Assay: cell-based or functional assay

B1: Fab N2 (Fab, V domains shown)
VH: EVQLVESGGGLVQPGGSLRLSCAASGFNFSSSIHWVRQAPGKGLEWVASISSSSGSTSYADSVKGRFTISADTSKNTAYLQMNSLRAEDTAVYYCARQWSSVMEWYIGLDYWGQGTLVTVSS
VL: DIQMTQSPSSLSASVGDRVTITCRASQSVSSAVAWYQQKPGKAPKLLIYSASSLYSGVPSRFSGSRSGTDFTLTISSLQPEDFATYYCQQSSSSLITFGQGTKVEIKR
Kd of the PhnD mutant for glyphosate in the presence of Fab N2 (fluorescence titration): 450 nM
fold improvement of the Kd for glyphosate on adding Fab N2, compared to the mutant in the absence of Fab N2: ~18 fold
